T1: hCD32a-H131-His (human, UniProt P12318 34-217)
T1 construct: Generated in house; captured on anti-His Fab; also called FcgRIIa-H131
T1 sequence: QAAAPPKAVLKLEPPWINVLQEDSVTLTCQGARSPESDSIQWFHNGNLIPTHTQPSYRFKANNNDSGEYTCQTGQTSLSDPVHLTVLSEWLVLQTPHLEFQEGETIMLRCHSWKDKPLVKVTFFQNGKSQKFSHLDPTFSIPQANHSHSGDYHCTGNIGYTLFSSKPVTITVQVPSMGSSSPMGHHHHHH

T2: hCD32a-R131-His (human, UniProt P12318 34-217)
T2 construct: Generated in house; captured on anti-His Fab; Allele R131 as printed; the database entry may carry H at that position; also called FcgRIIa-R131
T2 sequence: T1 sequence with H134R

T3: hCD32b-His (human, UniProt P31994 43-217)
T3 construct: Generated in house; captured on anti-His Fab; also called FcgRIIb
T3 sequence: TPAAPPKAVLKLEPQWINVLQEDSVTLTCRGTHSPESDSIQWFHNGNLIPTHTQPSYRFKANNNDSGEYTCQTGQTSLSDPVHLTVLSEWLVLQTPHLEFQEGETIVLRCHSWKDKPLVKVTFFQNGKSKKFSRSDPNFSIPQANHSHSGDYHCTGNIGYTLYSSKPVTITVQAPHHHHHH

B1: Y1238-P238K (antibody, human IgG1, kappa)
heavy: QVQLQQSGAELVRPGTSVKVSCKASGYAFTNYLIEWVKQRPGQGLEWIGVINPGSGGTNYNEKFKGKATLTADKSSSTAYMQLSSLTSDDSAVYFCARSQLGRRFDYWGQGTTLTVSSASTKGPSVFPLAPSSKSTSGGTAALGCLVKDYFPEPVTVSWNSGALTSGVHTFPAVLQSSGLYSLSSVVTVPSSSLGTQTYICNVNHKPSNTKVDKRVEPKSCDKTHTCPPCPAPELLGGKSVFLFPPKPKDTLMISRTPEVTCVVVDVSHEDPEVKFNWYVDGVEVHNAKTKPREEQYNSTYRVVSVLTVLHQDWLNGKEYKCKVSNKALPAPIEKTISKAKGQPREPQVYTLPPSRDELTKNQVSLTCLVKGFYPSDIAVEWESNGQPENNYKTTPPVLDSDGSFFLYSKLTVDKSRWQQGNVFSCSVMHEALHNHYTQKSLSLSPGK
light: DIVMTQSHKFMSTSVGDRVSITCKASQDVRTGVAWYQQKPGQSPKLLIYSASYRNTGVPDRFTGSRSGTDFTFTISSVQAEDLAVYYCQQHYSPPYTFGGGTKLEIKRTVAAPSVFIFPPSDEQLKSGTASVVCLLNNFYPREAKVQWKVDNALQSGNSQESVTEQDSKDSTYSLSSTLTLSKADYEKHKVYACEVTHQGLSSPVTKSFNRGEC
notes: Chimeric; also called chimeric Y1238-P238K
B2: Y1238-N297A (antibody, human IgG1, kappa, N297A)
heavy: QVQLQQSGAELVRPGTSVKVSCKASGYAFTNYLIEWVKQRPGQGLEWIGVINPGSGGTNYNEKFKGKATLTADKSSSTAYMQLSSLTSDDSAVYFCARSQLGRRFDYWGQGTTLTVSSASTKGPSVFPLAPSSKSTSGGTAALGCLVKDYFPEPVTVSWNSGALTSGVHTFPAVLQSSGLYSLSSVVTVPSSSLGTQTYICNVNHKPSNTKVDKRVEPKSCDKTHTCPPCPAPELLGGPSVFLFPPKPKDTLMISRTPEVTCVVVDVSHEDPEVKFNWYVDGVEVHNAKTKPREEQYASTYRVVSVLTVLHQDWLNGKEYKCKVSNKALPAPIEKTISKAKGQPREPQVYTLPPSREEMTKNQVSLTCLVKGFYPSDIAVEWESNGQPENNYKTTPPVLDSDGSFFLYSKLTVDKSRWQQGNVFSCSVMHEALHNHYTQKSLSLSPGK
light: B1 light
notes: Chimeric; also called chimeric Y1238-N297A
B3: Y1238-CTza (antibody, human IgG1, kappa)
heavy: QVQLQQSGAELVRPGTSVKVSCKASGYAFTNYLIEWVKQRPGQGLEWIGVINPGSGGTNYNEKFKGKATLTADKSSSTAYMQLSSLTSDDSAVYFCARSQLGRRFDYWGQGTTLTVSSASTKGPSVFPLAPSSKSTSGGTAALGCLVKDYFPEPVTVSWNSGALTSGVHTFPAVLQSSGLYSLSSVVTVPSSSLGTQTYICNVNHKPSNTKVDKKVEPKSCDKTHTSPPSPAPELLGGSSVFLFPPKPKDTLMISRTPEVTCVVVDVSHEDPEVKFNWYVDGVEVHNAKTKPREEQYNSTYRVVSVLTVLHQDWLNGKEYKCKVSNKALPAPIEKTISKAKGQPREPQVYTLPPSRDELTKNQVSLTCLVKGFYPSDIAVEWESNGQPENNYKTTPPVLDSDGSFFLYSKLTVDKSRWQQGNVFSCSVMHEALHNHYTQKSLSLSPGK
light: B1 light
notes: Chimeric; also called chimeric Y1238 CTza
B4: 5F11-45-IgG1f (antibody)
heavy: not shown
light: DIVLTQSPDSLAVSLGERATINCRASKNVDSYGNSFMHWYQQKPGQPPKLLIYRASNLESGVPDRFSGSGSGTDFTLTISSLQAEDVAVYYCQQSNEDPLTFGQGTKLEIKRTVAAPSVFIFPPSDEQLKSGTASVVCLLNNFYPREAKVQWKVDNALQSGNSQESVTEQDSKDSTYSLSSTLTLSKADYEKHKVYACEVTHQGLSSPVTKSFNRGEC
notes: Humanized anti-CD40, wild type human IgG1f
B5: 5F11-45-SE (antibody, human IgG1, kappa)
heavy: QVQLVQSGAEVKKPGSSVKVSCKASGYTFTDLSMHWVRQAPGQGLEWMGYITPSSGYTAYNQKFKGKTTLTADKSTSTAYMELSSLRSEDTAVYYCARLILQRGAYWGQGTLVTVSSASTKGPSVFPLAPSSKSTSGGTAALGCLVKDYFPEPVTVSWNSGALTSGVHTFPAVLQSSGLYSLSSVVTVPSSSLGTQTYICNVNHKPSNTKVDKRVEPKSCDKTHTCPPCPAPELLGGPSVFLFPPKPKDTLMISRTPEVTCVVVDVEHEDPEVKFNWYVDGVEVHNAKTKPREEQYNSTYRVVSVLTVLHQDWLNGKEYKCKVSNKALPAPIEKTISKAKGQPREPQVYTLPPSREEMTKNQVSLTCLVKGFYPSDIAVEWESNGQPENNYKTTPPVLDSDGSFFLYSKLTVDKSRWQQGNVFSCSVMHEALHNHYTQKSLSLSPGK
light: B4 light
notes: also called S267E variant
B6: 5F11-45-V11 (antibody, human IgG1, kappa)
heavy: QVQLVQSGAEVKKPGSSVKVSCKASGYTFTDLSMHWVRQAPGQGLEWMGYITPSSGYTAYNQKFKGKTTLTADKSTSTAYMELSSLRSEDTAVYYCARLILQRGAYWGQGTLVTVSSASTKGPSVFPLAPSSKSTSGGTAALGCLVKDYFPEPVTVSWNSGALTSGVHTFPAVLQSSGLYSLSSVVTVPSSSLGTQTYICNVNHKPSNTKVDKRVEPKSCDKTHTCPPCPAPELLGDDSVFLFPPKPKDTLMISRTPEVTCVVVDVSDEDGEVKFNWYVDGVEVHNAKTKPREEQYNSTYRVVSVLTVLHQDWLNGKEYKCKVSNKALPRPIEKTISKAKGQPREPQVYTLPPSREEMTKNQVSLTCLVKGFYPSDIAVEWESNGQPENNYKTTPPVLDSDGSFFLYSKLTVDKSRWQQGNVFSCSVMHEALHNHYTQKSLSLSPGK
light: B4 light
notes: Control with enhanced selectivity for hCD32b
B7: 5F11-45-P238K (antibody, human IgG1, kappa)
heavy: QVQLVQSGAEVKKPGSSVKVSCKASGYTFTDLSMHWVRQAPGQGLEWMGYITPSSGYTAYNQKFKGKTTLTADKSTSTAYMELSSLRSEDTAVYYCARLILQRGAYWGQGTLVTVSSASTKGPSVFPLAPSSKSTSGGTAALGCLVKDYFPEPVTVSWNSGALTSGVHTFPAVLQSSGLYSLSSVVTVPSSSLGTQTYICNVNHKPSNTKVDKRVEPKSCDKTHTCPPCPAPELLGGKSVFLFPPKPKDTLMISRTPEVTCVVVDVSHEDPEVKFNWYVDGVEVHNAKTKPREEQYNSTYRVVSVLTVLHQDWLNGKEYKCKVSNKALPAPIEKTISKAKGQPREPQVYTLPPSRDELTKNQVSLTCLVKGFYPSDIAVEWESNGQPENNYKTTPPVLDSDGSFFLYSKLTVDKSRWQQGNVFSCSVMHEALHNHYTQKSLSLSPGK
light: B4 light
B8: 5F11-45-CTza (antibody, human IgG1, kappa)
heavy: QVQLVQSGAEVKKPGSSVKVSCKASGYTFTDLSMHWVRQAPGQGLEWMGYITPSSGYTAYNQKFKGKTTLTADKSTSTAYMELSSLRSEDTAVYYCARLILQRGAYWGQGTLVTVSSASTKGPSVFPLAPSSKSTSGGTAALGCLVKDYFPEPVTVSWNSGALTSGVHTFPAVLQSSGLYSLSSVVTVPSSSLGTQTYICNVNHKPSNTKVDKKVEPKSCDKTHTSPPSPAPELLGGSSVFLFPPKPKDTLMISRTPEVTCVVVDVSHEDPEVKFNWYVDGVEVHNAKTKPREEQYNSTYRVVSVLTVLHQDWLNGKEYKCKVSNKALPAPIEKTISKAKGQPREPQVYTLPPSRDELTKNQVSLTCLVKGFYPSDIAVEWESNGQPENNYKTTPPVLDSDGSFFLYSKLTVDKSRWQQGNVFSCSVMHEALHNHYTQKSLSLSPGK
light: B4 light
B9: 5F11-45-N297A (antibody, human IgG1, kappa, N297A)
heavy: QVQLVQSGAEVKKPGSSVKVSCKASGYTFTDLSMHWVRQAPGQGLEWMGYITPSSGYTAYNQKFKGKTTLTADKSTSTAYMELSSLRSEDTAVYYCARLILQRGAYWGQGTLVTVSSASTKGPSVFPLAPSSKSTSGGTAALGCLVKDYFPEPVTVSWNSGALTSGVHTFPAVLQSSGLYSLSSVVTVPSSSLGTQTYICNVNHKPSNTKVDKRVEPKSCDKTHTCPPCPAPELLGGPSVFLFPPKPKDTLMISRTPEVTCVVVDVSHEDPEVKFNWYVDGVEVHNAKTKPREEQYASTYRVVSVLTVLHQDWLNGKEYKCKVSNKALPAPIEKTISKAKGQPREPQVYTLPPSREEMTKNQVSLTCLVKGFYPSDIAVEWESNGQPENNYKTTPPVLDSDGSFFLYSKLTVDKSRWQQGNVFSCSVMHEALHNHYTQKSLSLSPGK
light: B4 light

Substitutions are numbered along the chain they refer to. Names and notes keep the numbering of the source.

human CD40 on primary human cells (tonsillar B cells, immature dendritic cells), sequence (P25942 21-277 limits assumed): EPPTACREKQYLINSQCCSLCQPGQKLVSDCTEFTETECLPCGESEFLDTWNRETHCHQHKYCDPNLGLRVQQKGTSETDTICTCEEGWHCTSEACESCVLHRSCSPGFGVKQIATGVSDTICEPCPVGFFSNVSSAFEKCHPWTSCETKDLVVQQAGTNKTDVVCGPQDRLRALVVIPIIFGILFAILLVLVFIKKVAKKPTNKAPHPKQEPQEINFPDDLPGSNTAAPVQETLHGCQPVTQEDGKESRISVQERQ
T6 sequence (P25942 21-193 limits assumed): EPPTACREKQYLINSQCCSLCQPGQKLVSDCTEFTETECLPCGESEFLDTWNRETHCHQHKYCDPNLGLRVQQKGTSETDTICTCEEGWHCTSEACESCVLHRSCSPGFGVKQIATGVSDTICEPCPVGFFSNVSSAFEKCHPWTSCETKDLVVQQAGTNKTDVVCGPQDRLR
T4 sequence (P12314 other isoform, or with tags, fused parts or gaps limits assumed): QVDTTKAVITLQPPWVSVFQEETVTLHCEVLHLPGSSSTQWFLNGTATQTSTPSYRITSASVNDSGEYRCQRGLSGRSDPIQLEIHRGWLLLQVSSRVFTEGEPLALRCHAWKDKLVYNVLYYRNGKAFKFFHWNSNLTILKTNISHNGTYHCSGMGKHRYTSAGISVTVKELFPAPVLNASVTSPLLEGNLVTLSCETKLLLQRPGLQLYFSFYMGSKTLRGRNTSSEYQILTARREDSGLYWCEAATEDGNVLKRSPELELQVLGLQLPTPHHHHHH

One assay concerns the target T4, hCD64-His (human, UniProt P12314 16-288, limits assumed).
T4 construct: Generated in house; captured on anti-His Fab; also called hFcgRI; FcgRI
In words: SPR. The protocol:
(§1) FCGR BINDING SPR: FcgR binding can be measured in vitro using purified FcgRs using methods such as BIAcore™ surface plasmon resonance (SPR). One method tests the binding of purified antibodies to His-tagged FcgR proteins (FcgR-His) which are captured on the immobilized Fab fragment of an anti-His antibody. These experiments are performed on either a BIAcore™ T100 or BIAcore™ T200 instrument (GE Healthcare Life Sciences, Marlborough, Mass.) at 25° C. The Fab fragment from a murine anti-6×His antibody (generated in house) is immobilized on a CMS sensor chip using standard ethyl(dimethylaminopropyl) carbodiimide (EDC)/N-hydroxysuccinimide (NHS) chemistry with ethanolamine blocking, to a density of ˜3000 RU in a running buffer of 10 mM HEPES pH 7.4, 150 mM NaCl, 3 mM EDTA, 0.05% surfactant p20 (HBS-EP+). All remaining studies are performed using a running buffer of 10 mM NaPO4, 130 mM NaCl, 0.05% p20 (PBS-T) pH 7.1. Various FcγR proteins containing a C-terminal 6× poly-histidine tag (generated in house) are captured on this surface (typically using FcgR-his protein concentration of ˜7 μg/ml) using a contact time of 30 sec at 10 μl/min. Various concentrations of purified antibody are tested for binding, for example using an association time of 120 seconds at 30 μl/min, and a dissociation time of 120 seconds at 30 μl/min. FcgR proteins tested in these studies include the “high affinity” FcgR CD64 (hFcgRI), as well as the “low affinity” FcgRs CD32a-H131 (FcgRIIa-H131), CD32a-R131 (FcgRIIa-R131), CD32b (FcgRIIb), CD16a-V158 (FcgRIIIa-V158), and CD16b-NA2 (FcgRIIIb-NA2).
Regarding B1, the binding result is on record as “binds”.
Consider B2, for which the binding result is recorded as “binds”.
Still for that read-out and setting: the result for B3 reads “binds”.

In another assay the target is T1, hCD32a-H131-His. Nature of the assay: SPR. The protocol:
as §1
Take B4: the binding result was “binds”.
For B5, the binding result is listed as “binds”.

In another assay the target is T2, hCD32a-R131-His. In words: SPR. The protocol: as §1
Regarding B4, the binding result is given as “binds”.
Consider B5, for which the binding result is recorded as “binds”.

In the next assay the target is T3, hCD32b-His. Nature of the assay: SPR. The protocol: as §1
On to B4, for which the binding result is recorded as “binds”.
Same read-out and setting: under B5 stands “binds”; under B6, “binds”.

The target of the next assay is T5, hCD16a-V158-His (human, UniProt P08637 17-208).
T5 construct: Generated in house; captured on anti-His Fab; Allele V158 as printed; the database entry may carry F at that position; also called FcgRIIIa-V158
T5 sequence (P08637 other isoform, or with tags, fused parts or gaps limits assumed): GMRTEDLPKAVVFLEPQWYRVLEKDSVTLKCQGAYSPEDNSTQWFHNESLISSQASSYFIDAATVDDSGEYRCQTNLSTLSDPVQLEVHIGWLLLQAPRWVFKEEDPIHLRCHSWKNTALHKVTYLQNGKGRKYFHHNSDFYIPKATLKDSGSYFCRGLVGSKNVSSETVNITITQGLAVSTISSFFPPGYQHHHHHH
Nature of the assay: SPR. As to the method:
as §1
As for B4, the binding result is listed as “binds”.

A further assay concerns the target human CD40 on primary human cells (tonsillar B cells, immature dendritic cells) (human, UniProt P25942 21-277). In words: cell-based or functional assay.
Regarding B7, the “IC50 for inhibition of proliferation of B cells, CD40L Trimer” value was 10 ng/mL.
As to B1, the “IC50 for inhibition of proliferation of B cells, CD40L Trimer” value is 3.4 ng/mL and the “IC50 for inhibition of proliferation of B cells, CHO CD40L” value is 18.4 ng/mL.
Taken in the same sequence, the figures for B2 were 3.6 ng/mL and 17 ng/mL.

The next assay has as its target T6, human-CD40 monomer (human, UniProt P25942 21-193, limits assumed).
T6 construct: also called hCD40-monomer; human-CD40-monomer protein
Nature of the assay: SPR, Ab captured on protein A, CD40 monomer analyte.
On to B4, for which binding was characterised by a dissociation constant (Kd) of 6.7 nM, the koff came to 0.00046 s⁻¹ and the kon was found to be 69000 M⁻¹ s⁻¹.
For B8 the same measures were 1.6 nM, 0.00014 s⁻¹ and 88000 M⁻¹ s⁻¹.
Regarding B7, the Kd turned out to be 3.3 nM, the koff was 0.00027 s⁻¹ and the kon is 79000 M⁻¹ s⁻¹.
Taken in the same sequence, the figures for B9 were 2.8 nM, 0.00022 s⁻¹ and 80000 M⁻¹ s⁻¹.
Taken in the same sequence, the figures for B5 were 6.6 nM, 0.00047 s⁻¹ and 71000 M⁻¹ s⁻¹.
Taken in the same sequence, the figures for B6 were 3.9 nM, 0.0003 s⁻¹ and 79000 M⁻¹ s⁻¹.

Another assay concerns the target T6, human-CD40 monomer. Described as above. The source holds these as a separate data set. As to the method: These chimeric antibodies were tested for CD40 and FcgR binding by SPR, as well as for iDC activation.
In the case of B1, the Kd turned out to be 2.6 nM, the koff came to 0.00026 s⁻¹ and the kon was 97000 M⁻¹ s⁻¹.
B2: the Kd was 2.5 nM, the koff was 0.00024 s⁻¹ and the kon came to 97000 M⁻¹ s⁻¹.
For B3 the same measures were 2.3 nM, 0.00023 s⁻¹ and 100000 M⁻¹ s⁻¹.

The next assay deals with T4, hCD64-His. In words: SPR (BIAcore): 7 µg/ml hCD64-His captured on an anti-His Fab surface, 1 µM antibody as analyte. As to the method: as §1
Consider B4, for which the binding result was “binds”.
B8: the binding result is “binds”.
Consider B7, for which the binding result is reported as “binds”.
For B9, the binding result was “binds”.

The values are drawn from US20220177596A1 (Bristol-Myers Squibb, published 2022).
